From publication PMC4618406

How the values were obtained:
[1] = ThT fluorescence of gT72/unmodified mixtures, 50 μM total; details: glycan gained, control: unmodified α-synuclein
[2] = TEM of fibers from mixtures; details: glycan gained; control: unmodified α-synuclein, 50 μM

| Substance | other: fibril aggregation [1] | structure_or_conformation [2] |
| --- | --- | --- |
| α-synuclein: 10% α-synuclein(gT72) | decreases |  |
| α-synuclein: 10-50% α-synuclein(gT72) mixtures |  | no change |
| α-synuclein: 25% α-synuclein(gT72) | decreases |  |
| α-synuclein: 50% α-synuclein(gT72) | decreases |  |
